Primed or numbered codes have the meaning given here. Where no end group is shown, it is not given here. [ ]: non-standard residue; d: D form. The star is where a group is joined. FITC = O=C1OC2(c3ccc(O)cc3Oc3cc(O)ccc32)c2ccc(NC(=S)*)cc21; pT = C[C@@H](OP(=O)(O)O)[C@H](N)C(=O)O; pS = N[C@@H](COP(=O)(O)O)C(=O)O; PEG2″ = not defined here
B2: peptide 1, APN 38–46 pSer43, as used in ITC (peptide)
peptide: NKNAN[pS]SPV
notes: aminopeptidase N (APN, CD13), human, residues 38-46; source: synthetic peptide (Fmoc SPPS, HPLC purified)
B5: 14-3-3η, full length, N-terminally His6-tagged (natural protein, human, UniProt Q04917 1-246, looked up)
chain: MGDREQLLQRARLAEQAERYDDMASAMKAVTELNEPLSNEDRNLLSVAYKNVVGARRSSWRVISSIEQKTMADGNEKKLEKVKAYREKIEKELETVCNDVLSLLDKFLIKNCNDFQYESKVFYLKMKGDYYRYLAEVASGEKKNSVVEASEAAYKEAFEISKEQMQPTHPIRLGLALNFSVFYYEIQNAPEQACLLAKQAFDDAIAELDTLNEDSYKDSTLIMQLLRDNLTLWTSDQQDEEAGEGN
notes: 14-3-3 eta, human, full length; also called His6-14-3-3η; source: E. coli BL21(DE3), purified (HisTrap, SEC); also in E. coli cell lysate (pulldown); not shown: His6, N-terminal, kept
B7: 14-3-3σ ΔC (aa 1–231) (domain or fragment, human, UniProt P31947 1-231, looked up)
chain: MERASLIQKAKLAEQAERYEDMAAFMKGAVEKGEELSCEERNLLSVAYKNVVGGQRAAWRVLSSIEQKSNEEGSEEKGPEVREYREKVETELQGVCDTVLGLLDSHLIKEAGDAESRVFYLKMKGDYYRYLAEVATGDDKKRIIDSARSAYQEAMDISKKEMPPTNPIRLGLALNFSVFHYEIANSPEEAISLAKTTFDEAMADLHTLSEDSYKDSTLIMQLLRDNLTLWT
notes: 14-3-3 sigma (stratifin), human, C-terminally truncated, residues 1-231; One monomer per asymmetric unit; the biological dimer is generated by crystallographic symmetry; also called 14-3-3 ΔC aa 1–231; source: E. coli BL21(DE3), purified (HisTrap, TEV cleavage, reverse HisTrap, SEC); not shown: His6, N-terminal, cleaved

What was measured:
[1] = molecular target: T1, 14-3-3σ, full length, N-terminally His6-tagged (human, UniProt P31947 1-248); experiment: fluorescence polarisation; competition: dilution series of acetylated peptide (starting concentration 4000 µM) added to a premixed complex of 14-3-3σ (3 µM) and FITC-labeled RAF1 tracer (30 nM); 10 mM HEPES pH 7.4, 150 mM NaCl, 2 mM DTT, 0.01% Tween 20; 25 °C; conditions: both partners purified
T1 construct: 14-3-3 sigma (stratifin), human, full length; no tag cleavage is described for the full-length proteins; also called stratifin; SFN; source: E. coli BL21(DE3), purified (HisTrap, SEC)
T1 sequence (looked up): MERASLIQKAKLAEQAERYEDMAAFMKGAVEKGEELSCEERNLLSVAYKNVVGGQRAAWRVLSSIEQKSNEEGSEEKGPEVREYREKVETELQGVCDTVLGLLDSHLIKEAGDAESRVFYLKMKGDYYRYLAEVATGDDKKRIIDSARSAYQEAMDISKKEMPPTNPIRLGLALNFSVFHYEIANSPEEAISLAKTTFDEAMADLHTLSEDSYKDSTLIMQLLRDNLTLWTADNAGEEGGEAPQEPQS

[2] = molecular target: B5; experiment: fluorescence polarisation; direct binding: dilution series of 14-3-3 protein added to FITC-labeled peptide (30 nM stock, 5 µl in 15 µl); 10 mM HEPES pH 7.4, 150 mM NaCl, 2 mM DTT, 0.01% Tween 20; 60 min at room temperature, read at 25 °C; four-parameter fit; conditions: both partners purified
[3] = molecular target: T2, 14-3-3β/α, full length, N-terminally His6-tagged (human, UniProt P31946 1-246); experiment: as above; conditions: both partners purified
T2 construct: 14-3-3 beta/alpha, human, full length; also called His6-14-3-3β/α; source: E. coli BL21(DE3), purified (HisTrap, SEC); also in E. coli cell lysate (pulldown); not shown: His6, N-terminal, kept
T2 sequence (looked up): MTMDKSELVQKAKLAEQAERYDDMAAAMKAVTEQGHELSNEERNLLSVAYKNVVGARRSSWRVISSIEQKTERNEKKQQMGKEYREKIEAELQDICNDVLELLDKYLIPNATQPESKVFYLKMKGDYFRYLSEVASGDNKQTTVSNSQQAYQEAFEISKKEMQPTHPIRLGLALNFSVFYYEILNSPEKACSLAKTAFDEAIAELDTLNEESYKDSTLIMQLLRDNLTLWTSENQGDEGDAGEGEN

[4] = molecular target: B5; experiment: ITC; 14-3-3η (500 µM; 250 µM for peptide 11) titrated into peptide (50 µM; 12.5 µM for peptide 11), 18 injections; 50 mM HEPES pH 7.4, 250 mM NaCl, 20 mM MgCl2; 25 °C; conditions: both partners purified
[5] = molecular target: T3, 14-3-3γ, full length, N-terminally His6-tagged (human, UniProt P61981 1-247); experiment: fluorescence polarisation; direct binding: dilution series of 14-3-3 protein added to FITC-labeled peptide (30 nM stock, 5 µl in 15 µl); 10 mM HEPES pH 7.4, 150 mM NaCl, 2 mM DTT, 0.01% Tween 20; 60 min at room temperature, read at 25 °C; four-parameter fit; conditions: both partners purified
T3 construct: 14-3-3 gamma, human, full length; source: E. coli BL21(DE3), purified (HisTrap, SEC)
T3 sequence (looked up): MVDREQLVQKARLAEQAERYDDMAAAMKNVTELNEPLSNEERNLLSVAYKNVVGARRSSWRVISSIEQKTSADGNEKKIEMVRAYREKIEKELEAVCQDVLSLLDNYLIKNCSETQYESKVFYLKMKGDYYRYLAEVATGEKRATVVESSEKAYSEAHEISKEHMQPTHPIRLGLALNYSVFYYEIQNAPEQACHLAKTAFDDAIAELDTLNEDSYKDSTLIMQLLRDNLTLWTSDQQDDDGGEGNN

[6] = molecular target: T4, 14-3-3θ, full length, N-terminally His6-tagged (human, UniProt P27348 1-245); experiment: as above; conditions: both partners purified
T4 construct: 14-3-3 theta (printed as τ in the introduction, θ in the results), human, full length; also called 14-3-3τ; source: E. coli BL21(DE3), purified (HisTrap, SEC)
T4 sequence (looked up): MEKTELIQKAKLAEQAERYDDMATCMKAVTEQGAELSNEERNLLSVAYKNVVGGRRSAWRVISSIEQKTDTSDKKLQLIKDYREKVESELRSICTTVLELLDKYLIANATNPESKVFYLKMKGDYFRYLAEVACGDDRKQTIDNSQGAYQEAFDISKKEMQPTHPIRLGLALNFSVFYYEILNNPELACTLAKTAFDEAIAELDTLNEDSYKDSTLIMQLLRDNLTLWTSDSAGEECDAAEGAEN

[7] = molecular target: T5, 14-3-3ε, full length, N-terminally His6-tagged (human, UniProt P62258 1-255); experiment: as above; conditions: both partners purified
T5 construct: 14-3-3 epsilon, human, full length; source: E. coli BL21(DE3), purified (HisTrap, SEC)
T5 sequence (looked up): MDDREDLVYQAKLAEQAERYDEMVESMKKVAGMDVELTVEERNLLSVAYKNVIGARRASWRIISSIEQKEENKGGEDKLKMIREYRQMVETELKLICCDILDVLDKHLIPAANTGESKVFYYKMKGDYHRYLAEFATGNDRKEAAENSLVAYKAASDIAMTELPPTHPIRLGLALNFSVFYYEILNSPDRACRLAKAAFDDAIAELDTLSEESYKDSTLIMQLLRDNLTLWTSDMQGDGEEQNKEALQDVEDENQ

[8] = molecular target: T6, 14-3-3ζ, full length, N-terminally His6-tagged (human, UniProt P63104 1-245); experiment: as above; conditions: both partners purified
T6 construct: 14-3-3 zeta, human, full length; source: E. coli BL21(DE3), purified (HisTrap, SEC)
T6 sequence (looked up): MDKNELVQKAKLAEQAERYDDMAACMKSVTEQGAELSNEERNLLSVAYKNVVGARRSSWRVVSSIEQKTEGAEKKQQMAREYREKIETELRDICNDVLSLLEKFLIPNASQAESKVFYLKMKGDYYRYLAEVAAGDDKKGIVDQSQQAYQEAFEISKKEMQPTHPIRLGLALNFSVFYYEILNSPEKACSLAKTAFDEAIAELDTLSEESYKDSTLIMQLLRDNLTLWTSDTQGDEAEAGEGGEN

[9] = molecular target: T1, 14-3-3σ, full length, N-terminally …; experiment: as above; conditions: both partners purified
[10] = molecular target: B7; experiment: crystal structure; 14-3-3σ ΔC co-crystallised with peptide 11; sitting drops, 100 mM HEPES pH 7.7, 0.19 M CaCl2, 5% glycerol, 27% PEG400; space group C222(1), 1.20 Å; also solved in P1; conditions: both partners purified
[11] = molecular target: B2; experiment: ITC; 14-3-3η (500 µM; 250 µM for peptide 11) titrated into peptide (50 µM; 12.5 µM for peptide 11), 18 injections; 50 mM HEPES pH 7.4, 250 mM NaCl, 20 mM MgCl2; 25 °C; conditions: both partners purified
[12] = molecular target: the molecule itself; experiment: crystal structure; 14-3-3σ ΔC (12.5 g/l) mixed 1:2 with peptide 1; sitting drops, 100 mM HEPES pH 7.3, 0.19 M CaCl2, 5% glycerol, 28% PEG400, 4 °C; space group C222(1), 1.60 Å

B1: acetylated (label-free, unlabeled) peptide 1, APN 38–46 pSer43 (peptide)
peptide: Ac-NKNAN[pS]SPV
notes: aminopeptidase N (APN, CD13), human, residues 38-46; also called acetylated peptide 1; label-free peptide 1; source: synthetic peptide (Fmoc SPPS, HPLC purified)
IC50 [1]: 18.8 ± 1.5 µM

NPASA[pT]TLD [peptide 15, monophosphorylated APN 9-mer pThr63 (site 2)]
Kd [2]: > 40 µM | Kd [3]: > 40 µM

B2
Kd [4]: 2.18 µM

B3: FITC-labeled peptide 1, APN 38–46 pSer43 (peptide)
peptide: {FITC-PEG2″}-NKNAN[pS]SPV
notes: aminopeptidase N (APN, CD13), human, residues 38-46; also called site 1; source: synthetic peptide (Fmoc SPPS, HPLC purified)
Kd [2]: 0.32 ± 0.04 µM | binding result [5]: binds | binding result [6]: binds | binding result [7]: binds | binding result [8]: binds | Kd [9]: 1.7 ± 0.1 µM

B4: peptide 11, APN 36–73 pSer43 pThr63, as used in ITC and co-crystallisation (peptide, UniProt P15144 36-73, looked up)
peptide: EKNKNAN[pS]SPVASTTPSASATTNPASA[pT]TLDQSKAWNR
notes: aminopeptidase N (APN, CD13), human, residues 36-73; also called bis-phosphorylated peptide 11; source: synthetic peptide (Fmoc SPPS, HPLC purified)
binding result [10]: binds

B5
stoichiometry N [11]: 1.05

B6: acetylated (unlabeled) RAF1 peptide (peptide)
peptide: Ac-RQRST[pS]TPN
notes: source: synthetic peptide (Fmoc SPPS, HPLC purified)
IC50 [1]: 13.4 ± 0.7 µM

B7
binding result [12]: binds

TTNPASATT (also: one phosphorylated Ser/Thr within Ser61–Thr64) [peptide 14, monophosphorylated APN 9-mer (noncanonical site of peptide 10)]
Kd [2]: > 40 µM | Kd [3]: > 40 µM

PASATTLDQ (also: one phosphorylated Ser/Thr within Ser61–Thr64) [peptide 16, monophosphorylated APN 9-mer (noncanonical site of peptide 12)]
Kd [2]: > 40 µM | Kd [3]: > 40 µM

— PMC7939381, “MMP activation–associated aminopeptidase N reveals a bivalent 14-3-3 binding motif” (The Journal of Biological Chemistry, 2020)
